Consider 5 molecules from publication PMC3855764, “Oct4/Sox2 Binding Sites Contribute to Maintaining Hypomethylation of the Maternal Igf2/H19 Imprinting Control Region”.

Details in all cases: protein: recombinant
Data set [1] has as its target T1, Oct4 (recombinant) (UniProt P20263 1-352). Nature of the data set: EMSA; bound both elements equally well; 10 mM Tris pH 8.0, 2 mM MgCl (so in the source), 100 mM KCl, 1.25 mM DTT, 5% glycerol, 0.0625% BSA, 19 ug/ml dGdC, 25 fmol probe in 16 ul, 10 min room temperature; 4% PAGE 0.25X TBE.
For data set [2], the target named is T2, Sox2 (recombinant) (UniProt P48432 1-319). As to the kind of experiment: EMSA; Sox2 alone; 10 mM Tris pH 8.0, 2 mM MgCl (so in the source), 100 mM KCl, 1.25 mM DTT, 5% glycerol, 0.0625% BSA, 19 ug/ml dGdC, 25 fmol probe in 16 ul, 10 min room temperature; 4% PAGE 0.25X TBE.
T2 sequence (P48432 whole entry): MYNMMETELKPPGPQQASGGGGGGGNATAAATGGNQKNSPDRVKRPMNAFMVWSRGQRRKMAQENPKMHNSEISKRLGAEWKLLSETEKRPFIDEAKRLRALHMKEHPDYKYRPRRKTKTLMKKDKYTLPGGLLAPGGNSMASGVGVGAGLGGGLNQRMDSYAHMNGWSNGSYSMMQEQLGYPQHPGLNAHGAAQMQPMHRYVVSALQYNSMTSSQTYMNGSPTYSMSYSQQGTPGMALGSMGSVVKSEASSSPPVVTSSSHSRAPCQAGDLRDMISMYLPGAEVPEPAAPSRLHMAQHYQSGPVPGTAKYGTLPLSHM
Data set [3] deals with T1, Oct4 (recombinant). Nature of the data set: EMSA; Oct4 binding not altered by Sox mutation; 10 mM Tris pH 8.0, 2 mM MgCl (so in the source), 100 mM KCl, 1.25 mM DTT, 5% glycerol, 0.0625% BSA, 19 ug/ml dGdC, 25 fmol probe in 16 ul, 10 min room temperature; 4% PAGE 0.25X TBE.
Data set [4] concerns the target T2, Sox2 (recombinant). As to the kind of experiment: EMSA; almost equal to WT; likely via octamer; 10 mM Tris pH 8.0, 2 mM MgCl (so in the source), 100 mM KCl, 1.25 mM DTT, 5% glycerol, 0.0625% BSA, 19 ug/ml dGdC, 25 fmol probe in 16 ul, 10 min room temperature; 4% PAGE 0.25X TBE.
Data set [5] addresses T2, Sox2 (recombinant). As to the kind of experiment: EMSA; 10 mM Tris pH 8.0, 2 mM MgCl (so in the source), 100 mM KCl, 1.25 mM DTT, 5% glycerol, 0.0625% BSA, 19 ug/ml dGdC, 25 fmol probe in 16 ul, 10 min room temperature; 4% PAGE 0.25X TBE.

T1 sequence (P20263 whole entry): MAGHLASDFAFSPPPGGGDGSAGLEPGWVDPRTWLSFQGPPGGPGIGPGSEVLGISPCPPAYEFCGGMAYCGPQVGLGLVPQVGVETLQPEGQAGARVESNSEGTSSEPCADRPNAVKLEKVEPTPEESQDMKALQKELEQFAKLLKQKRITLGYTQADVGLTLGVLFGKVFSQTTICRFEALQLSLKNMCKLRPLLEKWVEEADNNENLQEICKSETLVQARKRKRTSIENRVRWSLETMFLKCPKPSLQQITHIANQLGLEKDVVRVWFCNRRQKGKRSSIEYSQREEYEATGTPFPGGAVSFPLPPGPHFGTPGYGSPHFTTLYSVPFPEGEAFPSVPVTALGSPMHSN

B1: ICR Sox-OctA (dsDNA)
DNA 1: CTGGTGATTTGCGCTTTCGTATTCTAATTGGGGAC
DNA 2: GTCCCCAATTAGAATACGAAAGCGCAAATCACCAG
For the molecule B1, the binding result in the data set with Oct4 (recombinant) [1] and in the data set with Sox2 (recombinant) [2] was “binds” each time.

B2: mSB (Sox mutant Sox-OctB) (dsDNA)
DNA 1: TTGGGGAACGAAGATGCTAATGATCTCCGGCT
DNA 2: AGCCGGAGATCATTAGCATCTTCGTTCCCCAA
B2: in the data set with Oct4 (recombinant) [3], the binding result is “binds”.

B3: ICR Sox-OctB (dsDNA)
DNA 1: TTGGGGCGTTCAGATGCTAATGATCTCCGGCT
DNA 2: AGCCGGAGATCATTAGCATCTGAACGCCCCAA
Take B3: in the data set with Oct4 (recombinant) [1], the binding result is “binds”.

B4: mSA (Sox mutant Sox-OctA) (dsDNA)
DNA 1: CTAAGCGCTACGTCCTAGGTATTCTAATTGGGGAC
DNA 2: GTCCCCAATTAGAATACCTAGGACGTAGCGCTTAG
As for B4, the binding result with Oct4 (recombinant) [3] and with Sox2 (recombinant) [4] was “binds” in each case.

B5: ICR SoxC (dsDNA)
DNA 1: GCTCAGGGCTGCAAACAATTCTGAAACTGCATTCTC
DNA 2: GAGAATGCAGTTTCAGAATTGTTTGCAGCCCTGAGC
For B5, the binding result with Sox2 (recombinant) [5] was “binds”.
